The source of these data is the supplement of paper PMC10567573.

The labels stand for the following.
B1: CDC25B (parent)
chain: ELKTFRLKTRSWAGERSRRELCSR
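Also: lentivirally expressed fusions sorted by FACS into six bins by GFP to DsRed ratio, PSI derived from sequencing read proportions per bin multiplied by bin number.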

In this data set the parent is B1. The data set is described as follows: protein stability index of a GFP-peptide fusion (GPS, HEK-293T) (PSI 1-6); higher = more stable. The settings on record: c terminus: a fixed tail appended.
For ELKTDRLKTRSWAGERSRRELCSR [F5D], the protein stability index came to 4.08.
For ELKTPRLKTRSWAGERSRRELCSR [F5P] the value was 4.43; for ELKTIRLKTRSWAGERSRRELCSR [F5I], 3.59; for ELKTHRLKTRSWAGERSRRELCSR [F5H], 3.92.
Then ELKTTRLKTRSWAGERSRRELCSR [F5T], with 3.82.
Then ELKTERLKTRSWAGERSRRELCSR [F5E], with 2.5.
With ELKTNRLKTRSWAGERSRRELCSR [F5N], the protein stability index was 3.63.
For ELKTQRLKTRSWAGERSRRELCSR [F5Q] the value was 3.67; for ELKTGRLKTRSWAGERSRRELCSR [F5G], 3.69; for ELKTWRLKTRSWAGERSRRELCSR [F5W], 2.87.
Then ELKTSRLKTRSWAGERSRRELCSR [F5S], with 3.94.
Then ELKTMRLKTRSWAGERSRRELCSR [F5M], with 3.6.
As to ELKTYRLKTRSWAGERSRRELCSR [F5Y], the protein stability index turned out to be 3.94.
Then ELKTRRLKTRSWAGERSRRELCSR [F5R], with 3.78.
For ELKTKRLKTRSWAGERSRRELCSR [F5K], the protein stability index stood at 4.24.
Then ELKTLRLKTRSWAGERSRRELCSR [F5L], with 3.65; and ELKTCRLKTRSWAGERSRRELCSR [F5C], with 3.09; and ELKTARLKTRSWAGERSRRELCSR [F5A], with 4.09.
With ELKTVRLKTRSWAGERSRRELCSR [F5V], the protein stability index worked out at 3.96.
Then ELKTFRLKQRSWAGERSRRELCSR [T9Q], with 3.13.
As to ELKTFRLKNRSWAGERSRRELCSR [T9N], the protein stability index is 3.66.
For ELKTFRLKRRSWAGERSRRELCSR [T9R] the value was 4.65; for ELKTFRLKSRSWAGERSRRELCSR [T9S], 4.09.
For ELKTFRLKLRSWAGERSRRELCSR [T9L] the value was 2.09; for ELKTFRLKFRSWAGERSRRELCSR [T9F], 2.18; for ELKTFRLKARSWAGERSRRELCSR [T9A], 3.66.
Then ELKTFRLKYRSWAGERSRRELCSR [T9Y], with 3.16; and ELKTFRLKDRSWAGERSRRELCSR [T9D], with 3.35.
As to ELKTFRLKERSWAGERSRRELCSR [T9E], the protein stability index was determined as 3.69.
Then ELKTFRLKGRSWAGERSRRELCSR [T9G], with 4; and ELKTFRLKWRSWAGERSRRELCSR [T9W], with 1.54; and ELKTFRLKHRSWAGERSRRELCSR [T9H], with 3.29.
With ELKTFRLKVRSWAGERSRRELCSR [T9V], the protein stability index amounted to 2.6.
Then ELKTFRLKKRSWAGERSRRELCSR [T9K], with 3.84.
Then ELKTFRLKCRSWAGERSRRELCSR [T9C], with 3.58; and ELKTFRLKPRSWAGERSRRELCSR [T9P], with 3.14; and ELKTFRLKMRSWAGERSRRELCSR [T9M], with 2.3.
Then ELKTFRLKIRSWAGERSRRELCSR [T9I], with 1.99.
As for YLKTFRLKTRSWAGERSRRELCSR [E1Y], the protein stability index came to 2.19.
Then VLKTFRLKTRSWAGERSRRELCSR [E1V], with 3.31; and RLKTFRLKTRSWAGERSRRELCSR [E1R], with 3.03.
For NLKTFRLKTRSWAGERSRRELCSR [E1N] the value was 3.01; for PLKTFRLKTRSWAGERSRRELCSR [E1P], 3.72.
Then TLKTFRLKTRSWAGERSRRELCSR [E1T], with 2.69.
WLKTFRLKTRSWAGERSRRELCSR [E1W]: the protein stability index turned out to be 2.6.
As to QLKTFRLKTRSWAGERSRRELCSR [E1Q], the protein stability index came out at 3.57.
Then SLKTFRLKTRSWAGERSRRELCSR [E1S], with 3.2.
For ELKTFCLKTRSWAGERSRRELCSR [R6C] the value was 2.14; for ELKTFKLKTRSWAGERSRRELCSR [R6K], 2.85.
Then ELKTFDLKTRSWAGERSRRELCSR [R6D], with 3.17; and ELKTFFLKTRSWAGERSRRELCSR [R6F], with 1.75.
Take ELKTFQLKTRSWAGERSRRELCSR [R6Q]: the protein stability index came out at 3.75.
For ELKTFNLKTRSWAGERSRRELCSR [R6N] the value was 3.3; for ELKTFHLKTRSWAGERSRRELCSR [R6H], 3.25; for ELKTFYLKTRSWAGERSRRELCSR [R6Y], 2.42.
Then ELKTFTLKTRSWAGERSRRELCSR [R6T], with 3.39; and ELKTFMLKTRSWAGERSRRELCSR [R6M], with 2.14; and ELKTFPLKTRSWAGERSRRELCSR [R6P], with 3.75.
ELKTFSLKTRSWAGERSRRELCSR [R6S]: the protein stability index is 3.33.
Then ELKTFLLKTRSWAGERSRRELCSR [R6L], with 2.04; and ELKTFGLKTRSWAGERSRRELCSR [R6G], with 3.34; and ELKTFELKTRSWAGERSRRELCSR [R6E], with 1.84.
As for ELKTFVLKTRSWAGERSRRELCSR [R6V], the protein stability index was determined as 2.32.
Consider ELKTFALKTRSWAGERSRRELCSR [R6A], for which the protein stability index worked out at 2.78.
Then ELKTFWLKTRSWAGERSRRELCSR [R6W], with 1.89.
For the variant ELKTFILKTRSWAGERSRRELCSR [R6I], the protein stability index is 2.06.
Consider EQKTFRLKTRSWAGERSRRELCSR [L2Q], for which the protein stability index was determined as 4.5.
For the variant ECKTFRLKTRSWAGERSRRELCSR [L2C], the protein stability index was found to be 4.24.
For EFKTFRLKTRSWAGERSRRELCSR [L2F] the value was 2.54.
Then EGKTFRLKTRSWAGERSRRELCSR [L2G], with 3.75; and ESKTFRLKTRSWAGERSRRELCSR [L2S], with 4.12; and EVKTFRLKTRSWAGERSRRELCSR [L2V], with 3.44.
Then EKKTFRLKTRSWAGERSRRELCSR [L2K], with 3.53; and EYKTFRLKTRSWAGERSRRELCSR [L2Y], with 3.78.
As for EAKTFRLKTRSWAGERSRRELCSR [L2A], the protein stability index was determined as 4.42.
For EPKTFRLKTRSWAGERSRRELCSR [L2P] the value was 3.89; for EIKTFRLKTRSWAGERSRRELCSR [L2I], 3.17.
Then ERKTFRLKTRSWAGERSRRELCSR [L2R], with 3.67.
For EWKTFRLKTRSWAGERSRRELCSR [L2W] the value was 2.83.
Consider EEKTFRLKTRSWAGERSRRELCSR [L2E], for which the protein stability index worked out at 4.97.
Then EMKTFRLKTRSWAGERSRRELCSR [L2M], with 3.87.
Then EDKTFRLKTRSWAGERSRRELCSR [L2D], with 3.81.
Then ENKTFRLKTRSWAGERSRRELCSR [L2N], with 4.04.
For EHKTFRLKTRSWAGERSRRELCSR [L2H], the protein stability index stood at 3.74.
Turning to ETKTFRLKTRSWAGERSRRELCSR [L2T], the protein stability index came out at 3.72.
Then ELKEFRLKTRSWAGERSRRELCSR [T4E], with 3.16; and ELKKFRLKTRSWAGERSRRELCSR [T4K], with 2.61; and ELKCFRLKTRSWAGERSRRELCSR [T4C], with 2.56.
For ELKSFRLKTRSWAGERSRRELCSR [T4S] the value was 3.6.
Turning to ELKAFRLKTRSWAGERSRRELCSR [T4A], the protein stability index worked out at 3.47.
As to ELKLFRLKTRSWAGERSRRELCSR [T4L], the protein stability index worked out at 2.85.
For ELKFFRLKTRSWAGERSRRELCSR [T4F] the value was 2.79; for ELKHFRLKTRSWAGERSRRELCSR [T4H], 3.27.
Then ELKIFRLKTRSWAGERSRRELCSR [T4I], with 2.26.
